Data: US20150164995A1 (Sanofi, published 2015)
Read-outs that look alike come from different tables or passages of the source. Square brackets hold non-standard residues; d marks the D form. Ends that are not written are not given here. Nle = CCCC[C@H](N)C(=O)O; Aib = CC(C)(N)C(=O)O

T1: human GIP receptor (human, UniProt P48546 22-466)
T1 sequence (looked up): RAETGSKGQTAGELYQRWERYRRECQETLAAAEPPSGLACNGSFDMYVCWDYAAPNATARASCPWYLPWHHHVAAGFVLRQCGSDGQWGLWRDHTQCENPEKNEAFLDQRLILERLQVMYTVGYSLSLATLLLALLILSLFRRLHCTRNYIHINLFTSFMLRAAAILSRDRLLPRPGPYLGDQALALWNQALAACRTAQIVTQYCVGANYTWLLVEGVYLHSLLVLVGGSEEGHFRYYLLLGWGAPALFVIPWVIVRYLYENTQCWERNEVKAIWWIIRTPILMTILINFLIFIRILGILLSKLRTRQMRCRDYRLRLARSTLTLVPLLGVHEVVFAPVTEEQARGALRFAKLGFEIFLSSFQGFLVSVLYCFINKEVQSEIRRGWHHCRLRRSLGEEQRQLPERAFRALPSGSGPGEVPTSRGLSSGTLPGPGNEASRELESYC

B1: SEQ ID NO: 12 (peptide)
peptide: Y[Aib]EGTFTSDLSIQLDKRAA[Aib]EFIEWLKAGGPSSGAPPPS-NH2
modifications: N-terminus assumed
SMILES: CC[C@H](C)[C@H](NC(=O)[C@H](CO)NC(=O)[C@H](CC(C)C)NC(=O)[C@H](CC(=O)O)NC(=O)[C@H](CO)NC(=O)[C@@H](NC(=O)[C@H](Cc1ccccc1)NC(=O)[C@@H](NC(=O)CNC(=O)[C@H](CCC(=O)O)NC(=O)C(C)(C)NC(=O)[C@@H](N)Cc1ccc(O)cc1)[C@@H](C)O)[C@@H](C)O)C(=O)N[C@@H](CCC(N)=O)C(=O)N[C@@H](CC(C)C)C(=O)N[C@@H](CC(=O)O)C(=O)N[C@@H](CCCCN)C(=O)N[C@@H](CCCNC(=N)N)C(=O)N[C@@H](C)C(=O)N[C@@H](C)C(=O)NC(C)(C)C(=O)N[C@@H](CCC(=O)O)C(=O)N[C@@H](Cc1ccccc1)C(=O)N[C@H](C(=O)N[C@@H](CCC(=O)O)C(=O)N[C@@H](Cc1c[nH]c2ccccc12)C(=O)N[C@@H](CC(C)C)C(=O)N[C@@H](CCCCN)C(=O)N[C@@H](C)C(=O)NCC(=O)NCC(=O)N1CCC[C@H]1C(=O)N[C@@H](CO)C(=O)N[C@@H](CO)C(=O)NCC(=O)N[C@@H](C)C(=O)N1CCC[C@H]1C(=O)N1CCC[C@H]1C(=O)N1CCC[C@H]1C(=O)N[C@@H](CO)C(N)=O)[C@@H](C)CC
B2: SEQ ID NO: 10 (peptide)
peptide: Y[Aib]EGTFTSDLSIQ[Nle]EKRAA[Aib]EFIEWLKAGGPSSGAPPPS-NH2
modifications: N-terminus assumed
SMILES: CCCC[C@H](NC(=O)[C@H](CCC(N)=O)NC(=O)[C@@H](NC(=O)[C@H](CO)NC(=O)[C@H](CC(C)C)NC(=O)[C@H](CC(=O)O)NC(=O)[C@H](CO)NC(=O)[C@@H](NC(=O)[C@H](Cc1ccccc1)NC(=O)[C@@H](NC(=O)CNC(=O)[C@H](CCC(=O)O)NC(=O)C(C)(C)NC(=O)[C@@H](N)Cc1ccc(O)cc1)[C@@H](C)O)[C@@H](C)O)[C@@H](C)CC)C(=O)N[C@@H](CCC(=O)O)C(=O)N[C@@H](CCCCN)C(=O)N[C@@H](CCCNC(=N)N)C(=O)N[C@@H](C)C(=O)N[C@@H](C)C(=O)NC(C)(C)C(=O)N[C@@H](CCC(=O)O)C(=O)N[C@@H](Cc1ccccc1)C(=O)N[C@H](C(=O)N[C@@H](CCC(=O)O)C(=O)N[C@@H](Cc1c[nH]c2ccccc12)C(=O)N[C@@H](CC(C)C)C(=O)N[C@@H](CCCCN)C(=O)N[C@@H](C)C(=O)NCC(=O)NCC(=O)N1CCC[C@H]1C(=O)N[C@@H](CO)C(=O)N[C@@H](CO)C(=O)NCC(=O)N[C@@H](C)C(=O)N1CCC[C@H]1C(=O)N1CCC[C@H]1C(=O)N1CCC[C@H]1C(=O)N[C@@H](CO)C(N)=O)[C@@H](C)CC
B3: SEQ ID NO: 11 (peptide)
peptide: Y[Aib]EGTFTSDLSIQLEKRAA[Aib]EFIEWLKAGGPSSGAPPPSK-NH2
modifications: N-terminus assumed
SMILES: CC[C@H](C)[C@H](NC(=O)[C@H](CO)NC(=O)[C@H](CC(C)C)NC(=O)[C@H](CC(=O)O)NC(=O)[C@H](CO)NC(=O)[C@@H](NC(=O)[C@H](Cc1ccccc1)NC(=O)[C@@H](NC(=O)CNC(=O)[C@H](CCC(=O)O)NC(=O)C(C)(C)NC(=O)[C@@H](N)Cc1ccc(O)cc1)[C@@H](C)O)[C@@H](C)O)C(=O)N[C@@H](CCC(N)=O)C(=O)N[C@@H](CC(C)C)C(=O)N[C@@H](CCC(=O)O)C(=O)N[C@@H](CCCCN)C(=O)N[C@@H](CCCNC(=N)N)C(=O)N[C@@H](C)C(=O)N[C@@H](C)C(=O)NC(C)(C)C(=O)N[C@@H](CCC(=O)O)C(=O)N[C@@H](Cc1ccccc1)C(=O)N[C@H](C(=O)N[C@@H](CCC(=O)O)C(=O)N[C@@H](Cc1c[nH]c2ccccc12)C(=O)N[C@@H](CC(C)C)C(=O)N[C@@H](CCCCN)C(=O)N[C@@H](C)C(=O)NCC(=O)NCC(=O)N1CCC[C@H]1C(=O)N[C@@H](CO)C(=O)N[C@@H](CO)C(=O)NCC(=O)N[C@@H](C)C(=O)N1CCC[C@H]1C(=O)N1CCC[C@H]1C(=O)N1CCC[C@H]1C(=O)N[C@@H](CO)C(=O)N[C@@H](CCCCN)C(N)=O)[C@@H](C)CC
B4: SEQ ID NO: 9 (peptide)
peptide: Y[Aib]EGTFTSDLSIQLEKRAA[Aib]EFIEWLKAGGPSSGAPPPS-NH2
modifications: N-terminus assumed
SMILES: CC[C@H](C)[C@H](NC(=O)[C@H](CO)NC(=O)[C@H](CC(C)C)NC(=O)[C@H](CC(=O)O)NC(=O)[C@H](CO)NC(=O)[C@@H](NC(=O)[C@H](Cc1ccccc1)NC(=O)[C@@H](NC(=O)CNC(=O)[C@H](CCC(=O)O)NC(=O)C(C)(C)NC(=O)[C@@H](N)Cc1ccc(O)cc1)[C@@H](C)O)[C@@H](C)O)C(=O)N[C@@H](CCC(N)=O)C(=O)N[C@@H](CC(C)C)C(=O)N[C@@H](CCC(=O)O)C(=O)N[C@@H](CCCCN)C(=O)N[C@@H](CCCNC(=N)N)C(=O)N[C@@H](C)C(=O)N[C@@H](C)C(=O)NC(C)(C)C(=O)N[C@@H](CCC(=O)O)C(=O)N[C@@H](Cc1ccccc1)C(=O)N[C@H](C(=O)N[C@@H](CCC(=O)O)C(=O)N[C@@H](Cc1c[nH]c2ccccc12)C(=O)N[C@@H](CC(C)C)C(=O)N[C@@H](CCCCN)C(=O)N[C@@H](C)C(=O)NCC(=O)NCC(=O)N1CCC[C@H]1C(=O)N[C@@H](CO)C(=O)N[C@@H](CO)C(=O)NCC(=O)N[C@@H](C)C(=O)N1CCC[C@H]1C(=O)N1CCC[C@H]1C(=O)N1CCC[C@H]1C(=O)N[C@@H](CO)C(N)=O)[C@@H](C)CC

Columns and labels:
Assay in all cases: cell-based or functional assay
[1] = target: human glucagon receptor (human) (UniProt P47871)
[2] = target: human GLP-1 receptor (human) (UniProt P43220)
human glucagon receptor = human glucagon receptor (human, UniProt P47871 26-477)
human GLP-1 receptor [3] = target: T2, human GLP-1 receptor (human, UniProt P43220 24-463)
human GIP receptor [4] = target: T1, human GIP receptor
human GLP-1 receptor [5] = target: T2, human GLP-1 receptor; remark: listed apart in the source
Target sequence in this assay (P43220 24-463): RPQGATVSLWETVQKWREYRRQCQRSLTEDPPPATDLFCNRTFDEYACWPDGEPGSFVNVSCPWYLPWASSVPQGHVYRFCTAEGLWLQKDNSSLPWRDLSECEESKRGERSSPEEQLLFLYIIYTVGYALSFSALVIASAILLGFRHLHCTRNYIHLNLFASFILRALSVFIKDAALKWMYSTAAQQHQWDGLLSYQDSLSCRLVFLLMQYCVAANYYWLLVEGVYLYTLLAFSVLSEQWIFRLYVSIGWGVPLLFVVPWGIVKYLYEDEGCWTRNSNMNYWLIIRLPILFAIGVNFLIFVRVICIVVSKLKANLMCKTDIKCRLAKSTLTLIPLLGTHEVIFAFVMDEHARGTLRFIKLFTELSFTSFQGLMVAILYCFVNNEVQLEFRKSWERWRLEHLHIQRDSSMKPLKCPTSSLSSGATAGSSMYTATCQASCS

human GIP receptor [6] = target: T1, human GIP receptor; remark: listed apart in the source

human glucagon receptor, sequence (P47871 26-477): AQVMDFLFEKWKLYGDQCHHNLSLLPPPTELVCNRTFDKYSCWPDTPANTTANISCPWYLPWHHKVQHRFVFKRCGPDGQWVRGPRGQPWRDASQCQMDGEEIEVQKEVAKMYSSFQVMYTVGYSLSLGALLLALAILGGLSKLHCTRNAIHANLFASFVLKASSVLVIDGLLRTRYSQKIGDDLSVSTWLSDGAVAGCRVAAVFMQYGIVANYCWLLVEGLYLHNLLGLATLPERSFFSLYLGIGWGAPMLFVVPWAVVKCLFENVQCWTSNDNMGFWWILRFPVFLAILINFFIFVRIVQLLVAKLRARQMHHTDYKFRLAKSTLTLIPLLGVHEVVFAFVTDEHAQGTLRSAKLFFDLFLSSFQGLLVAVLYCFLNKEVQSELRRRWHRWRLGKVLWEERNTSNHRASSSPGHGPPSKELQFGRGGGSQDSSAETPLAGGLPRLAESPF
human GLP-1 receptor (human), sequence (P43220 24-463): as the sequence (P43220 24-463) above
human glucagon receptor (human), sequence (P47871 26-477): as the sequence (P47871 26-477) above

Molecule	EC50 hGlucagon R [pM] (cAMP formation, HTRF, HEK-293 cells) [1]	EC50 hGLP-1 R [pM] (cAMP formation, HTRF, HEK-293 cells) [2]	EC50 hGLUC R [pM] (cAMP formation, HTRF, HEK-293 cells) (human glucagon receptor)	EC50 hGLP-1 R [pM] (cAMP formation, HTRF, HEK-293 cells) (human GLP-1 receptor [3])	EC50 hGlP R [pM] (cAMP formation, HTRF, HEK-293 cells) (human GIP receptor [4])	EC50 hGLP-1 R [pM] (cAMP formation, HTRF, HEK-293 cells) (human GLP-1 receptor [5])	EC50 hGlP R [pM] (cAMP formation, HTRF, HEK-293 cells) (human GIP receptor [6])
exendin-4 (peptide)	> 1e+07	0.4	–	–	–	–	–
B1	–	–	17900	2.6	17.9	–	–
B2	–	–	193000	1.4	12.4	–	–
YAEGTFTSDVSIYLEGQAAKEFIAWLVKGR (ends and bridges not checked) [Tyr(1)Ile(12)-GLP1]	–	–	–	–	–	5	3660
B3	–	–	129000	1.6	14.1	–	–
Y[Aib]EGTFTSDLSIQMEKRAA[Aib]EFIEWLKAGGPSSGAPPPS-NH2 [SEQ ID NO: 8]	–	–	> 1e+06	1.5	14.4	–	–
B4	–	–	155000	1.2	7.9	–	–
